The numbers were not newly measured in article PMC6155283, which cites them from elsewhere.

One may read the Kd as the free concentration of one partner at which half of the binding sites on the other are occupied at equilibrium, for simple one-to-one binding.

This data set has as its target GRα (Homo sapiens) (UniProt P04150).

Values joined by “and” are separate entries in the source; they are usually repeats but may differ in a detail not shown here. Identical values can stand only once.

In the case of GRα (from UniProt P04150), the Kd was 7.4 µM and 3 µM.
